Results from the supplement of paper PMC10065799, “High-throughput profiling of sequence recognition by tyrosine kinases and SH2 domains using bacterial peptide display” (eLife, 2023).

Key:
SHP2-C SH2 = test: SH2 binding enrichment of the phosphorylated peptide, bacterial display (enrichment ratio); higher = better substrate or ligand; peptides without Tyr show the background
c-Src SH2 = test: as above
Grb2 SH2 = Grb2 SH2 (UniProt P62993); test: as above
Fes = Fes (UniProt P07332); test: phosphorylation enrichment, bacterial display (enrichment ratio); higher = better substrate or ligand; peptides without Tyr show the background
Fes, sequence (P07332 whole entry, looked up): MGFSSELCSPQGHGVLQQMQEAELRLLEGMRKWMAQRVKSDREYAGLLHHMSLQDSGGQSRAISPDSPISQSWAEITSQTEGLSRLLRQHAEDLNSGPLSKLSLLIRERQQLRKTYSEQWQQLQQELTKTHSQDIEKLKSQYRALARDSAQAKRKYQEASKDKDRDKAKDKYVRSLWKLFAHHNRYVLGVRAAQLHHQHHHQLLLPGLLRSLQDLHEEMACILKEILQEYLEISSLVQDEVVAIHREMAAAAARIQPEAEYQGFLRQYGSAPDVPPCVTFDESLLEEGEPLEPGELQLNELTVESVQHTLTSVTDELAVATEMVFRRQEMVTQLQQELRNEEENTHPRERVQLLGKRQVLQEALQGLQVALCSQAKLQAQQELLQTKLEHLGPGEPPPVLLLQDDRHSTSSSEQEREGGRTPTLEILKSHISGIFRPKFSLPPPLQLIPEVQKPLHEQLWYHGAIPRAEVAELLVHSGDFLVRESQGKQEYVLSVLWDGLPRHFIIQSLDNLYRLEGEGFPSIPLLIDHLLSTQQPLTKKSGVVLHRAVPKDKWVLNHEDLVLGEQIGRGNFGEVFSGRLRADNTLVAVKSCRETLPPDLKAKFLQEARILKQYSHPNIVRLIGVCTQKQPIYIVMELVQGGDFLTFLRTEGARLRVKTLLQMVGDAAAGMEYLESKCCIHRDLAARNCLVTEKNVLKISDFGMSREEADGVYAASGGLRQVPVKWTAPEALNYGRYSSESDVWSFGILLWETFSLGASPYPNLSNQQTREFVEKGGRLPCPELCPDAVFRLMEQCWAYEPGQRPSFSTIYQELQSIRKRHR

EPHB1 = EPHB1 (UniProt P54762); test: as above
EPHB2 = EPHB2 (UniProt P29323); test: as above
EPHB2, sequence (P29323 whole entry, looked up): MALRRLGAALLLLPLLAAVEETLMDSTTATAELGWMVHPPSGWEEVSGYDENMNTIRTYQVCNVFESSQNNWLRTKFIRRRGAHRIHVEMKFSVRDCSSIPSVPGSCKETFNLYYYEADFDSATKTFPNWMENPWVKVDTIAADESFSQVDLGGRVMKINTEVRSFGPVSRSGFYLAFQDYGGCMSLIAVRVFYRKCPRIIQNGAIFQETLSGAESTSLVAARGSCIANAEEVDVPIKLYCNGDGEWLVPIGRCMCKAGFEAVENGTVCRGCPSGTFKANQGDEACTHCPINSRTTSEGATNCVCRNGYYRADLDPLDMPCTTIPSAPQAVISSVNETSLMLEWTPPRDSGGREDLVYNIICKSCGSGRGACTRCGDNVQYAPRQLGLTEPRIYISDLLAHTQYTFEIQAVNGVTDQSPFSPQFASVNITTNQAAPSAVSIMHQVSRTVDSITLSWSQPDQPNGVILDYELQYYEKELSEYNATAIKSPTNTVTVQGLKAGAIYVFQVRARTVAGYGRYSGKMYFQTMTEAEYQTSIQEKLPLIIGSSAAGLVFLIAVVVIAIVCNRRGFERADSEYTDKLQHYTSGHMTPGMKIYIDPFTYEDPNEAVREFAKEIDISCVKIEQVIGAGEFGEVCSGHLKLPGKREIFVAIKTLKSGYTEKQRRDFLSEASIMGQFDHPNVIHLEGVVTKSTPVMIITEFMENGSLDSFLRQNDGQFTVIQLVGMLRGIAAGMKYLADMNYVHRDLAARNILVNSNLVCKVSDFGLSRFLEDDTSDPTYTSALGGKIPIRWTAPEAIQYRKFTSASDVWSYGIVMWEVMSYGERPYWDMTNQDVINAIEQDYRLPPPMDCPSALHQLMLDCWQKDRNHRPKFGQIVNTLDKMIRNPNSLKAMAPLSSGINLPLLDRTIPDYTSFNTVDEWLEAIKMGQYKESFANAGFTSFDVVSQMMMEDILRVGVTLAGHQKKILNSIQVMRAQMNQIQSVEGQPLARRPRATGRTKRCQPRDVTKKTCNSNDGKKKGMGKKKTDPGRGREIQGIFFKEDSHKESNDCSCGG

FGFR3 = FGFR3 (UniProt P22607); test: as above
Hck = Hck (UniProt P08631); test: as above
Hck, sequence (P08631 whole entry, looked up): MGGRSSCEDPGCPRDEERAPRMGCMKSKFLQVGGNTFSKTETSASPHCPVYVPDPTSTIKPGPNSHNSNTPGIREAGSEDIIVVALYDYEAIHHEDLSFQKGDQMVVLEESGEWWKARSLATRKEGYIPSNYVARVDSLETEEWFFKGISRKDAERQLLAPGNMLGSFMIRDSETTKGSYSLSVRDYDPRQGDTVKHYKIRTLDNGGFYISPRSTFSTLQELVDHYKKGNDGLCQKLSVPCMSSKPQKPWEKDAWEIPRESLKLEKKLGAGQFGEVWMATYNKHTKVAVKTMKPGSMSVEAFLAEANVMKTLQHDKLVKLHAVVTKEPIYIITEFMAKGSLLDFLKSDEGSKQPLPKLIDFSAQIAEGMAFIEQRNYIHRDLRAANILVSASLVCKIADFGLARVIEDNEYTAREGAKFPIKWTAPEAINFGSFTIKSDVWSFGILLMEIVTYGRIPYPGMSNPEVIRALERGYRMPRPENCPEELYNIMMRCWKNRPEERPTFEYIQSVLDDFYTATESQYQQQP

Fyn = Fyn (UniProt P06241); test: as above
Fyn, sequence (P06241 whole entry, looked up): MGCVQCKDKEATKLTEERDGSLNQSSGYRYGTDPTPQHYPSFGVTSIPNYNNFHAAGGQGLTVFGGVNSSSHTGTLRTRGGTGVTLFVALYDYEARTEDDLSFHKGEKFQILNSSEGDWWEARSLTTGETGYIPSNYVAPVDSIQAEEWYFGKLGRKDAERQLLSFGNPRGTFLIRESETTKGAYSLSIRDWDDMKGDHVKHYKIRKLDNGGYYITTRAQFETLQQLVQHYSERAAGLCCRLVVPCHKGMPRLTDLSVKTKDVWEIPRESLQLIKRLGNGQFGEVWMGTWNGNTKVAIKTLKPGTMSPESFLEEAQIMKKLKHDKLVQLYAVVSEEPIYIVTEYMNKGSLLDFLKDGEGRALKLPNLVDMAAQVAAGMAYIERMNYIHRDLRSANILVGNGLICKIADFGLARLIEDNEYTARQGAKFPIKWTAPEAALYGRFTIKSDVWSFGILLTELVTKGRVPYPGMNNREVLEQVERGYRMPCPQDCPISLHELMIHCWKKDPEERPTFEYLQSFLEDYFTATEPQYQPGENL

AncSZ = test: as above
c-Src = test: as above
c-Abl (mouse) = test: as above
MERTK = MERTK (UniProt Q12866); test: as above
MERTK, sequence (Q12866 whole entry, looked up): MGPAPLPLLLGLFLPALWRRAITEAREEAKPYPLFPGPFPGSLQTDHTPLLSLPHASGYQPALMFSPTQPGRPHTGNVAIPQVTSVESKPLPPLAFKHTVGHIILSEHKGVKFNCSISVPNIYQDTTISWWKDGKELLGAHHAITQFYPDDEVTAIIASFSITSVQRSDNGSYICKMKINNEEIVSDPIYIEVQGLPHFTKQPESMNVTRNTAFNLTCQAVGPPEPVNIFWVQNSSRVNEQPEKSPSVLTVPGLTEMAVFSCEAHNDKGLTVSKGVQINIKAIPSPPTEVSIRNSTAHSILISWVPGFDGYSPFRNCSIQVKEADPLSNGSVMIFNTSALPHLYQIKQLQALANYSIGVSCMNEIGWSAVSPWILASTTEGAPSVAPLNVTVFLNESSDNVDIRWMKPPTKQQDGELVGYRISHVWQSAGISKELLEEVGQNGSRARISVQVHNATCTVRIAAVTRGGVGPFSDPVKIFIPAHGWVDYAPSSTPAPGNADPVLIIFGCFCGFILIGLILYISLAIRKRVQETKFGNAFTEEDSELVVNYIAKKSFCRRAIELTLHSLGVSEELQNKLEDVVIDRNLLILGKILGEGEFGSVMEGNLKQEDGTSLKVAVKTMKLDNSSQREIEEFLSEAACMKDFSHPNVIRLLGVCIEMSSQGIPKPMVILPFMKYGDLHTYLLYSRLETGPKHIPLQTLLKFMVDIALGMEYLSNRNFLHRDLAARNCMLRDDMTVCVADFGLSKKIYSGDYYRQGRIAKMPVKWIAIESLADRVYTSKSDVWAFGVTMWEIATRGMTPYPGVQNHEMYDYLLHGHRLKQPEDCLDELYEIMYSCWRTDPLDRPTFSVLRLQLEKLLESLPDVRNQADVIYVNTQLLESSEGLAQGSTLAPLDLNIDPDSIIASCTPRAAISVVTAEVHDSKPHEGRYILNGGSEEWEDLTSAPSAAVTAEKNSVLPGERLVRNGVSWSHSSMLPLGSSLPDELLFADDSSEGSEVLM

FGFR1 = FGFR1 (UniProt P11362); test: as above
Fer (mouse) = test: as above
Jak2 = Jak2 (UniProt O60674); test: as above
Jak2, sequence (O60674 whole entry, looked up, the tested form may be a part): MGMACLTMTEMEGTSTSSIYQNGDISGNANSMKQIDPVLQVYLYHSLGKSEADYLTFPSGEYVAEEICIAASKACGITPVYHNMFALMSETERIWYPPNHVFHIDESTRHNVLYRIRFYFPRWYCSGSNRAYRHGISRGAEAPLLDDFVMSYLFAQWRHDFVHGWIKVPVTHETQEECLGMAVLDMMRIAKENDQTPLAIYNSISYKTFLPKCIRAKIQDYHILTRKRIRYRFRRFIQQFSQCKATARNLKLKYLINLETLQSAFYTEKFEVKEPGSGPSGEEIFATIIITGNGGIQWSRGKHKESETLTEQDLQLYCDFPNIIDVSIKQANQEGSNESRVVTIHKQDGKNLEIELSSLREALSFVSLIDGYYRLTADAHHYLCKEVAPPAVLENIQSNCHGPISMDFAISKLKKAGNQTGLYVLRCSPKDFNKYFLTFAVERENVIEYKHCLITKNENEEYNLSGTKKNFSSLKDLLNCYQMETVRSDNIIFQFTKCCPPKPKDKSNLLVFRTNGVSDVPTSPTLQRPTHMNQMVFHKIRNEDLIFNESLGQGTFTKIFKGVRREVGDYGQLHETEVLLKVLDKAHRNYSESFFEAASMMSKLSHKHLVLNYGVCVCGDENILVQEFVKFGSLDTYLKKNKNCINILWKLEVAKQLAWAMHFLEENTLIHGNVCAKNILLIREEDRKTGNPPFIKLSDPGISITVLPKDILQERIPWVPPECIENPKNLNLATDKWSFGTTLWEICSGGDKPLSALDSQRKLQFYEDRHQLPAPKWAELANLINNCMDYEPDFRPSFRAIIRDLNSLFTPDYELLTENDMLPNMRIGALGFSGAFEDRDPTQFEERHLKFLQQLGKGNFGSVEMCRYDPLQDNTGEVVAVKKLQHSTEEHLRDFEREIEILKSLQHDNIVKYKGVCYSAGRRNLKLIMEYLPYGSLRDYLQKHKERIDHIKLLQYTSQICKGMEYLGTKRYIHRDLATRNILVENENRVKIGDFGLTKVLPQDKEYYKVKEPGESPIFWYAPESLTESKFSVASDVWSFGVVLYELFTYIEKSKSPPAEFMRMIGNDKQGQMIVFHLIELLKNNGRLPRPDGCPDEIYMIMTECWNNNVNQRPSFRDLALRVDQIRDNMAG
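For SH2 binding enrichment of the phosphorylated peptide, bacterial display in this document: peptide library displayed on the E. coli surface as eCPX fusions, selected cells deep-sequenced, score is each peptide's frequency after selection divided by its frequency in the input.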
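For phosphorylation enrichment, bacterial display in this document: 11-residue human phosphosite peptides and single-mutation variants displayed on the E. coli surface, counted by deep sequencing, each peptide's frequency after selection divided by its frequency in the unselected input library; frequency after pTyr selection over input frequency; kinase dosed for 20-30% of maximal phosphorylation in three min.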

SH2 binding enrichment (SHP2-C SH2)	SH2 binding enrichment (c-Src SH2)	SH2 binding enrichment (Grb2 SH2)	Sequence	phosphorylation enrichment (Fes)	phosphorylation enrichment (EPHB1)	phosphorylation enrichment (EPHB2)	phosphorylation enrichment (FGFR3)	phosphorylation enrichment (Hck)	phosphorylation enrichment (Fyn)	phosphorylation enrichment (AncSZ)	phosphorylation enrichment (c-Src)	phosphorylation enrichment (c-Abl (mouse))	phosphorylation enrichment (MERTK)	phosphorylation enrichment (FGFR1)	phosphorylation enrichment (Fer (mouse))	phosphorylation enrichment (Jak2)
0.733	1.05	1.02	PVQAAYQKVEA [HBB_Y131_V135E]	0.887	0.54	0.559	0.525	0.653	0.597	0.921	0.587	0.879	0.604	0.709	0.676	1.16
1.34	0.781	0.816	QGLRLYRPHLP [BTK_Y617_A622P]	0.857	0.444	0.568	0.408	0.522	0.401	0.772	0.419	0.712	0.512	0.48	0.606	0.967
1.31	1.08	1.34	QGLRLYRTHLA [BTK_Y617_P619T]	0.478	0.359	0.486	0.365	0.317	0.339	0.509	0.312	0.448	0.333	0.306	0.42	0.577
0.617	0.429	0.838	QHNPEYVQQAT [LRRC7_Y1058_S1063T]	0.799	0.425	0.455	0.553	0.491	0.422	0.612	0.284	0.517	0.238	0.505	0.461	0.985
0.573	0.376	0.469	QKINNYLTVPA [SLC9A1_Y683]	0.727	1.34	0.706	0.445	0.689	0.508	0.618	0.524	0.833	0.65	0.758	0.497	0.615
0.565	0.48	0.629	QKKEEYKMALY [F8_Y1990_R1985Q]	1.41	0.984	0.626	0.582	0.496	0.603	1.72	0.978	0.902	0.693	0.527	0.895	1.63
0.604	0.447	0.776	QKMADYSNKLY [PDPR_Y104]	0.717	0.492	0.455	0.735	0.692	0.515	0.61	0.509	0.555	0.535	0.436	0.435	0.579
1.07	2.03	0.83	QLQQAYQEAFE [YWHAZ_Y149_S145L]	2.69	1.43	1.69	3.04	1.67	1.23	2.59	1.12	1.6	1.29	1.76	1.72	1.77
0.733	0.505	0.997	QNAGDYFDLFG [PTPN11_Y62_T59A_YF]	1.57	21.9	16.2	24.5	1.02	0.516	6.62	1.2	1.44	1.71	25.5	0.681	13.4

More lines, now with the values behind:

Sequence	SH2 binding enrichment (SHP2-C SH2)	SH2 binding enrichment (c-Src SH2)	SH2 binding enrichment (Grb2 SH2)	phosphorylation enrichment (Fes)	phosphorylation enrichment (EPHB1)	phosphorylation enrichment (EPHB2)	phosphorylation enrichment (FGFR3)	phosphorylation enrichment (Hck)	phosphorylation enrichment (Fyn)	phosphorylation enrichment (AncSZ)	phosphorylation enrichment (c-Src)	phosphorylation enrichment (c-Abl (mouse))	phosphorylation enrichment (MERTK)	phosphorylation enrichment (FGFR1)	phosphorylation enrichment (Fer (mouse))	phosphorylation enrichment (Jak2)
PYYASYPPSPD [GDAP2_Y491_T489A]	0.579	1	0.709	1.15	10.8	17.7	3.53	4.78	10.7	1.41	7.56	4.3	11.2	4.96	0.915	1.25
QDEPTYARSSK [PEAK1_Y616_H611Q]	0.69	0.561	0.816	0.869	0.389	0.498	0.508	0.838	0.554	0.787	0.661	0.738	0.513	0.603	0.466	0.685
QEGPEYWDQNT [HLA-A_Y83_E87N]	0.702	0.419	0.834	1.42	0.898	0.719	1.14	0.632	0.6	1.5	0.546	1.25	0.625	0.711	0.802	1.36
QFLMKYVRSAS [ABCD1_Y337_W339R]	0.927	0.369	0.517	1.05	0.673	0.666	0.873	0.566	0.605	0.995	0.799	0.82	0.476	0.431	0.559	1.2
QMIETYFDFRL [NSMF_Y506]	0.659	0.384	1.29	2.56	3.62	1.36	5.67	5.25	6.04	2.67	8.42	1.62	2.65	7.65	0.622	6.57
QMWLKYSQSDL [SMC1A_Y714_R711W]	0.878	0.455	1.02	1.8	0.637	0.562	1.08	0.546	0.485	1.67	0.668	1.11	0.505	0.701	0.512	1.27
QNTGNYYDLYG [PTPN11_Y62_D61N]	0.898	3.3	0.851	1.65	30.6	28.7	20.6	8.01	9.62	2.38	5.18	1.28	13.2	22.8	3.81	2.99
